The test concerns the target wild-type Bcl-xL (mouse full-length, adenovirus-expressed) (mouse) (UniProt Q64373). Description: native gel or EMSA; Blue Native PAGE (4-16% Bis-Tris) of the mitochondrial fraction of adenovirus-transduced TKPTS cells, extracted with 1% n-dodecyl-β-D-maltoside; blots probed for Bcl-xL, then Bax.

A word on the stoichiometry N: it is the number of molecules, sites or subunits per partner or assembly.

Take “wild-type Bcl-xL (mouse full-length, adenovirus-expressed) (from UniProt Q64373-1 1-233) (natural protein)”: the stoichiometry N worked out at 2.

The values above are taken from article PMC4877050.
